Results from article PMC2655686.

Target: TRF2BH (basic region + TRFH) (UniProt Q15554 45-289)
Experiment: EMSA

Sequence of TRF2BH (basic region + TRFH) (Q15554 45-289): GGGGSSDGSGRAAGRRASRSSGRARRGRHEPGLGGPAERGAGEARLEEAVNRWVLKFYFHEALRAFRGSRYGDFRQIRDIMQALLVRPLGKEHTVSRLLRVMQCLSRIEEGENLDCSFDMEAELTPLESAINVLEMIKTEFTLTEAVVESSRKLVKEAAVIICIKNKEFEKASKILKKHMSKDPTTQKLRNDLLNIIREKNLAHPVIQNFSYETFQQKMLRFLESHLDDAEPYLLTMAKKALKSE

TTAGGGTTAGGGTTAGGGTTAGGGTTAGGGTTAGGGTTAGGG (structured_DNA) [T7]: binds.
